# Measured values from article PMC7950113.
# Assays:
# Assay in all cases: Co-AP mass spectrometry with TMT quantification
# [1] = molecular target: PSME2; details: HEK293 cells; TMT intensities of interactors normalized to Tg intensities; read off a plot
# [2] = molecular target: PSMD3; details: HEK293 cells; TMT intensities of interactors normalized to Tg intensities; read off a plot
# [3] = molecular target: PRKCSH; details: HEK293 cells; TMT intensities of interactors normalized to Tg intensities; read off a plot
# [4] = molecular target: UGGT2; details: HEK293 cells; TMT intensities of interactors normalized to Tg intensities; read off a plot
# [5] = molecular target: PSMB4; details: HEK293 cells; TMT intensities of interactors normalized to Tg intensities; read off a plot
# [6] = molecular target: PSMA1; details: HEK293 cells; TMT intensities of interactors normalized to Tg intensities; read off a plot
# [7] = molecular target: MOGS; details: HEK293 cells; TMT intensities of interactors normalized to Tg intensities; read off a plot
# [8] = molecular target: PSMC4; details: HEK293 cells; TMT intensities of interactors normalized to Tg intensities; read off a plot
# [9] = molecular target: RAD-dependent oxidoreductase domain containing 2 [human (endogenous in HEK293 cells)]; details: TMT intensities of interactors normalized to Tg intensities, read off a plot
# [10] = molecular target: calreticulin [human (endogenous in HEK293 cells)]; details: TMT intensities of interactors normalized to Tg intensities, read off a plot
# [11] = molecular target: oligosaccharyl transferase complex catalytic subunit A [human (endogenous in HEK293 cells)]; details: TMT intensities of interactors normalized to Tg intensities, read off a plot
# [12] = molecular target: protein disulfide isomerase family A member 3 [human (endogenous in HEK293 cells)]; details: TMT intensities of interactors normalized to Tg intensities, read off a plot
substance,measurement,setting,value
"FLAG-tagged thyroglobulin, WT (from UniProt P01266) A2234D",other: log2 fold change vs WT,[1],-0.27 log2
same,other: log2 fold change vs WT,[2],-0.35 log2
same,other: log2 fold change vs WT,[3],-0.39 log2
same,other: log2 fold change vs WT,[4],0.15 log2
same,other: log2 fold change vs WT,[5],-0.33 log2
same,other: log2 fold change vs WT,[6],-0.28 log2
same,other: log2 fold change vs WT,[7],0.09 log2
"FLAG-tagged thyroglobulin, WT (from UniProt P01266) C1264R",other: log2 fold change vs WT,[1],-0.54 log2
same,other: log2 fold change vs WT,[2],-0.45 log2
same,other: log2 fold change vs WT,[3],-0.05 log2
same,other: log2 fold change vs WT,[4],-0.09 log2
same,other: log2 fold change vs WT,[5],-0.35 log2
same,other: log2 fold change vs WT,[8],-0.53 log2
same,other: log2 fold change vs WT,[6],-0.27 log2
same,other: log2 fold change vs WT,[7],-0.15 log2
"FLAG-tagged thyroglobulin, WT (from UniProt P01266) G2341R",other: log2 fold change vs WT,[1],-0.65 log2
same,other: log2 fold change vs WT,[2],-0.42 log2
same,other: log2 fold change vs WT,[4],0.73 log2
same,other: log2 fold change vs WT,[5],-0.53 log2
same,other: log2 fold change vs WT,[8],-0.51 log2
same,other: log2 fold change vs WT,[6],0.04 log2
same,other: log2 fold change vs WT,[7],-0.05 log2
"FLAG-tagged thyroglobulin, WT (from UniProt P01266) L2284P",other: log2 fold change vs WT,[1],-0.45 log2
same,other: log2 fold change vs WT,[2],-0.33 log2
same,other: log2 fold change vs WT,[4],0.49 log2
same,other: log2 fold change vs WT,[5],-0.51 log2
same,other: log2 fold change vs WT,[8],-0.27 log2
same,other: log2 fold change vs WT,[6],-0.04 log2
same,other: log2 fold change vs WT,[7],-0.02 log2
"FLAG-tagged thyroglobulin, WT mutant A2234D [human] / RAD-dependent oxidoreductase domain containing 2 [human (endogenous in HEK293 cells)] chain 1 A2215D",screen value,[9],0.67 log2
"FLAG-tagged thyroglobulin, WT mutant A2234D [human] / calreticulin [human (endogenous in HEK293 cells)] chain 1 A2215D",screen value,[10],0.07 log2
"FLAG-tagged thyroglobulin, WT mutant A2234D [human] / oligosaccharyl transferase complex catalytic subunit A [human (endogenous in HEK293 cells)] chain 1 A2215D",screen value,[11],-0.15 log2
"FLAG-tagged thyroglobulin, WT mutant C1264R [human] / RAD-dependent oxidoreductase domain containing 2 [human (endogenous in HEK293 cells)] chain 1 C1245R",screen value,[9],0.42 log2
"FLAG-tagged thyroglobulin, WT mutant C1264R [human] / calreticulin [human (endogenous in HEK293 cells)] chain 1 C1245R",screen value,[10],0.18 log2
"FLAG-tagged thyroglobulin, WT mutant C1264R [human] / oligosaccharyl transferase complex catalytic subunit A [human (endogenous in HEK293 cells)] chain 1 C1245R",screen value,[11],-0.37 log2
"FLAG-tagged thyroglobulin, WT mutant G2341R [human] / RAD-dependent oxidoreductase domain containing 2 [human (endogenous in HEK293 cells)] chain 1 G2322R",screen value,[9],0.45 log2
"FLAG-tagged thyroglobulin, WT mutant G2341R [human] / calreticulin [human (endogenous in HEK293 cells)] chain 1 G2322R",screen value,[10],0.46 log2
"FLAG-tagged thyroglobulin, WT mutant G2341R [human] / oligosaccharyl transferase complex catalytic subunit A [human (endogenous in HEK293 cells)] chain 1 G2322R",screen value,[11],-0.21 log2
"FLAG-tagged thyroglobulin, WT mutant G2341R [human] / protein disulfide isomerase family A member 3 [human (endogenous in HEK293 cells)] chain 1 G2322R",screen value,[12],0.55 log2
"FLAG-tagged thyroglobulin, WT mutant L2284P [human] / RAD-dependent oxidoreductase domain containing 2 [human (endogenous in HEK293 cells)] chain 1 L2265P",screen value,[9],0.58 log2
"FLAG-tagged thyroglobulin, WT mutant L2284P [human] / calreticulin [human (endogenous in HEK293 cells)] chain 1 L2265P",screen value,[10],0.5 log2
"FLAG-tagged thyroglobulin, WT mutant L2284P [human] / oligosaccharyl transferase complex catalytic subunit A [human (endogenous in HEK293 cells)] chain 1 L2265P",screen value,[11],-0.1 log2
"FLAG-tagged thyroglobulin, WT mutant L2284P [human] / protein disulfide isomerase family A member 3 [human (endogenous in HEK293 cells)] chain 1 L2265P",screen value,[12],0.6 log2
